From article doi:10.1101/2022.06.13.495990 (bioRxiv, 2022)

Target: mCherry-RAB28 (UniProt Q99KL7 1-221)
Assay: co-IP

fraction of CFAP418 pulled down: ~0.1%
B1: FLAG-CFAP418 (natural protein)
chain: MAKDLDELLDEVETKFCRLDPLRLDLGERPKGDGGGGSHSGDRNGAQEKETLRSTETFKKEDDLDSLINEIFEEPDFDRKSFQKFKSKSSSNTCVRAPMQGVSKSCSPVYLSGSAIPCGIGTNTSQRACDRLRCVACDFRIVSYNDYMWDKSCDYLFFRNNMPEFHKLKTKLIEKKGARAYACQCSWRTVEELTDLQTDHQLRWVCGKH
